In publication doi:10.1101/2020.08.13.249722:

Target: …-Toyopearl (PTCH peptide, positive control)
Experiment: equilibrium adsorption on peptide resin

percent of the incubated protein bound: > 73%
Substance: tandem WW domain of Yes-Associated Protein 1 (WW-YAP), soluble recombinant human protein (domain or fragment)
